Test [1] has as its target T1, hen egg lysozyme (hen, UniProt P00698 19-147).
T1 construct: Soluble monovalent antigen; Biotinylated for YSD titration; unlabelled analyte in SPR and titrant in ITC; also called HEL
Nature of the test: YSD antigen titration, flow cytometry, biotin-HEL and SAPE.

In test [2] the target is T1, hen egg lysozyme. Description: ITC at 25 C, VLR refolded from E. coli inclusion bodies, HEL injected.
In test [3] the target is T1, hen egg lysozyme. Description: SPR (BIAcore T100), biotinylated yeast-secreted VLR on NeutrAvidin, antigen as analyte.
Test [4] has as its target T1, hen egg lysozyme. Nature of the test: SPR, steady-state analysis, VLRB.2D (117.0-10.9 µM) over immobilized HEL (FIG. 3A); SPR of FIG. 3A; clone found by phage display.
Test [5] addresses T1, hen egg lysozyme. Nature of the test: SPR, Table 1.
The target in test [6] is T1, hen egg lysozyme. Nature of the test: SPR, VLR over immobilized HEL.
Test [7] has as its target T1, hen egg lysozyme. Nature of the test: SPR, steady-state analysis, 2DMut.12 (30.8-1.0 µM) over immobilized HEL (FIG. 3B).
The target of test [8] is T1, hen egg lysozyme. Description: SPR (BIAcore T100), biotinylated yeast-secreted VLR on NeutrAvidin, HEL as analyte (7.66-0.00299 nM).

T1 sequence (P00698 19-147): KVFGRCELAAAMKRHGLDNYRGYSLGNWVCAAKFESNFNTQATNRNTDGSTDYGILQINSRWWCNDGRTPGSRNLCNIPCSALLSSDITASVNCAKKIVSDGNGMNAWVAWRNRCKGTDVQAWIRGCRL

B1: VLRB.HEL.2D (other)
chain: ACPSQCSCSGTTVDCSGKSLASVPTGIPTTTQVLYLYDNQITKLEPGVFDRLTQLTRLDLDNNQLTVLPAGVFDKLTQLTQLSLNDNQLKSIPRGAFDNLKSLTHIWLLNNPWDCACSDILYLSRWISQHPGLVFGYLNLDPDSARCSGTNTPVRAVTEASTSPSKCP
notes: also called VLRB.2D; wild-type VLRB.2D
With B1, the Kd amounted to 659 nM in test [1], 427 nM in test [2], 455 nM in test [3] and 20000 nM in test [4].

B2: VLRB.2DMut.15 (other)
chain: ACPSQCSCSGTTVDCSGKSLASVPTGIPITTQVLYLYDNQITKLEPGVFDRLTQLTRLDLDNNQLTVLPAGVFDKLTQLTQLSLNVNQLKSIPRGAFDNLKSLTHIWLLNNPWDCACSDILYLSRWISQHPGLVFGYLNLYPDSARCSGTNTPVRAVTEASTSPSKCP
B2: the results for the Kd in test [2] and in test [3] were 8 nM and 20.2 nM, respectively.

B3: VLRB.2DMut.13 (other)
chain: ACPSQCSCSGTTVDCSGKSLASVPTGIPTTTQVLYLYDNRITKLEPGVFDRLTQLTRLDLDNNQLTVLPAGVFDKLTQLTQLSLNDNQLKSIPRGAFDNLRSLTHIWLLNNPWDCACSDILYLSRWISQHPWLVFGYLNLDHDSARCSGTNTPVRAVTKASTSPSKCP
B3: the figures for the Kd in test [2] and in test [3] were 34 nM and 55.1 nM, respectively.

B4: VLRB.2DMut.12 (other)
chain: ACPSQCSCSGTTVDCSGKSLASVPTGIPTTTQVLYLYDNQITKLEPGVFDRLTQLTRLDLDNNQLTVLPAGVFDKLTQLTQLSLNDNQLKSIPRGAFDNLKSLTHIWLLNNPWDCACSDILYLSRWISQHPWLVFGYLNLDHDSARCSGTNTPVRAVTEASTSPSKCP
Take B4: the “fold improvement of affinity over wild-type VLRB.HEL.2D” value in test [5] was found to be 100 fold. In addition, the “fold improvement of affinity over wild-type VLRB.2D” value in test [6] is 13 fold. For the same molecule, the dissociation constant Kd in test [1] turned out to be 6.9 nM; in test [2], 28 nM; in test [7], 1500 nM; in test [3] it was 4.3 nM.

B5: VLRB.CTMut.5 (other)
chain: ACPSQCSCDQTTVYCHNRRLTSVPTGIPTTTQVLYLYDNQITKLEPGVFDRLTKLTHLSLGYNQLKSVPRGAFDNLKSLTHIWLLNNPWDCQCTDILYLKNWIVQHASIVNPHTHGGVDNVKCSGTNTPVRAVTEASTSPSKC
As for B5, the “fold improvement of affinity over VLRB.HEL.1” value in test [5] amounted to 1300 fold. In test [8], this molecule yielded a Kd of 0.119 nM.

For the origin of these results see patent publication US20110230374A1 (UNIVERSITY OF MARYLAND BALTIMORE, published 2011).
